Experimental data taken from publication PMC8710476.

Experiments:
[1] = target: BD368-2 (class II)
[2] = target: CB6 (class I)
[3] = target: REGN10933 (class I)

| Substance | ratio to parent [1] [fold] | ratio to parent [2] [fold] | ratio to parent [3] [fold] |
| --- | --- | --- | --- |
| SARS-CoV-2 full-length spike, WT D614G, expressed on the cell surface (from UniProt P0DTC2) Alpha (B.1.1.7) | 1.3 | 2.7 |  |
| SARS-CoV-2 full-length spike, WT D614G, expressed on the cell surface (from UniProt P0DTC2) Beta (B.1.351) | -569 | -76.3 | -3.2 |
| SARS-CoV-2 full-length spike, WT D614G, expressed on the cell surface (from UniProt P0DTC2) Gamma (P.1) |  | -266 |  |
